Experimental data taken from patent US20260234247A1 (published 2026).
Numbering of substitutions follows the chain as printed.

B1: LK-RB2-1 (antibody, human IgG4 S228P, kappa, V domains shown)
VH: QIQLVQSGPELKKPGETVKISCKASGYTFTTYGMSWVKQAPGKGLKWMGWINTYSGVSTYADDFKGRFAFSLETSASTAYLQINNLKNEDTATYFCARRYDYDGYAMDYWGQGTSVTVSS
VL: DIVMSQSPSSLAVSVGEKVTMSCKSSQSLLFSSNQKNYLAWYQQKPGQSPKLLIYWASTRESGVPDRFTGRGSGTDFTLTISSVKTEDLAVYYCQQYDTYPPTFGGGTKLEIKR
B2: LK-RB2-23 (antibody, human IgG4 S228P, kappa, V domains shown)
VH: B1 VH with T53I, S58P, Y100G, A106Y, M107F, S115T, V116L
VL: NIVLIQSAATLSVTPGDSVSLSCRASQSLSNGLHWYQQKSHESPRLLIKYGSQSISGIPSRFSGSGSGTDFTLSINSVETEDFGMYFCQQSDSWPHTFGSGTKLEIKR
B3: LK-RB2-22 (antibody, human IgG4 S228P, kappa, V domains shown)
VH: B1 VH with P14T, T53I, S58P, Y100A, A106Y, M107F, S115T, V116L
VL: NIVMTQTPKFLLVSAGDRVTITCRASQSVTNDVAWYQQRPGQSLKLLIYYASNRYTGVPDRFTGSGYGTDFTFTISTVQAEDLAVYFCQQGYSSPFTFGSGTKLEIKR
B4: LK-RB2-33 (antibody, human IgG4 S228P, kappa, V domains shown)
VH: EVQLQQSGVELVRPGALVKLSCKASGFNIKDYYMHWVKQRPEQGLEWIGWIDPEKGDTIYGPKFQGKASITADTSSNTAYLQLSSLTSEDTAVYYCSRGPNYGSSYAFAYWGQGTLVTVSA
VL: DVVMTQSHKFMSTSVGDRVTITCKASQDVSNAVAWYQQKPGQSPKLLIYSASYRYTGVPDRFTGSGSGTDFTFTISSMQAEDLAVYYCQQHYSLPWTFGGGTKLEIKR
B5: LK-RB2-38 (antibody, human IgG4 S228P, kappa, V domains shown)
VH: EVKLVESGGGLVQPGGSLKLSCAASGFSFSDYYMYWVRQTPEKRLEWVAYISNGGGNTYYPDTVKGRFTISRDNAKNSLYLQMSRLKSEDTGMYYCARDREDWYFDVWGTGTTVTVSS
VL: DIVMTQSHTFMSTSVGDRVSITCKASQDVSTAVAWYQQKPGQSPKLLIYWASTRHTGVPDRFTGSGSGTDYTLTISSVQAEDLALYYCQQHYSTPRTFGGGTKLEIKR
B6: LK-RB2-4 (antibody, human IgG4 S228P, kappa, V domains shown)
VH: EVQLVESGGDLVKPGGSLKLSCAASGFTFSNYGMSWVRQTPDKRLEWVATISSGGSYTFYPDSVKGRFTISRDNAKNTLYLQMSSLKSEDTALYYCARDYYYGKTIEGYFDYWGQGTTLTVSS
VL: DIQMTQTTSSLSASLGDRVTISCRANQDISNYLNWYQQKPDGTVKLLIYYTSRLHSGVPSRFSGSGSGTDYSLTISDLEQEDIATYFCQQGNTLPWTFGGGTKLEIKR
B7: LK-RB2-3 (antibody, human IgG4 S228P, kappa, V domains shown)
VH: QLQLQQSDAELVKPGASVKISCKVSGYSFTDHTIHWMKQRPEQGLEWIGYIYPRDGSTKENEKFTGKATLTADKSSSTAYMQLTSLTSEDSAVYFCTGSGFDYWGQGTSLTVSS
VL: DIKMTQSPSSMYASLGERVTITCKASQDIKSYLSWFQQKPGKSPKTLIYRANRLVDGVPSRFSGSGSGQDYSLTINSLEYEDMEIYYCLQYDEFPYTFGGGTKLEIKR
B8: LK-RB2-35 (antibody, human IgG4 S228P, kappa, V domains shown)
VH: EVQLQQSGPELVKPGASVKISCKASGYTFTDYNMHWVKQSHGKSLEWIGSIYPYNGGSDYNQKFKSKATLTVDNSSSTAYMELRSLTSEDSAVYYCASELTGLYAMDYWGQGTSVTVSS
VL: DIVMTQSPATLSVTPGDRVSLSCRASQSISDYLHWYQQKSHESPRLLIKYASQSISGIPSRFSGSGSGSDFTLSINSVEPEDVGVYYCQTGHSFPYTFGGGTKLEIKR
B9: LK-RB2-21 (antibody, human IgG4 S228P, kappa, V domains shown)
VH: EVQLVESGGDLVKPGGSLKLSCAASGFTFSSYGMSWVRQTPDKRLEWVATISSGGSYTYYPDSLKGRFTISRDNAKSTLYLQMSSLKSEDTAKYYCARPYYDYIFYAIDYWGQGTSVTVSS
VL: DIQMNQSPSSLSASLGDTITITCHASQNINVWLSWYQQKPGNIPKLLIYKASNLHTGVPSRFSGSGSGTGFTLTISSLQPEDIATYYCQQGQSYPLTFGGGTKLEIKR
B10: LK-RB2-19 (antibody, human IgG4 S228P, kappa, V domains shown)
VH: QVQLQQPGAELVKPGASVKLSCKASGYTFTSYWMHWVKQRPGQGLEWIGMIHPNSGGTNYNEKFKSKATLTVDKSSSTAYMQFSSLTSEDSAVYYCARCTVVALYYALDYWGQGTSVTVSS
VL: QIVLSQSPAILSASPGEKVTMTCRATSRVSYIHWFQQKPGSSPKPWIYVTSNLASGVPARFSGSGSGTSYSLTISKLEAEDVATYYCQQWSTNPLTFGAGTKLELKR
B11: LK-RB2-14 (antibody, human IgG4 S228P, kappa, V domains shown)
VH: QVQLKQSGPGLVQPSQSLSITCTVSGFSLTSYGVHWVRQSPGKGLEWLGVIWRGGSTDYNAAFMSRLSITKDNSKSQVFFKMNSLQADDTAIYYCAKNEGDSTVVAWYFDVWGTGTTVTVSS
VL: DIQMTQTTSSLSASLGDRVTISCSASQGISNYLNWFQQKPDGTVKLLIYYTSSLHSGVPSRFSGSGSGTDYSLTISNLEPEDIATYYCQQYSKLPLTFGAGTKLELKR
B12: LK-RB2-42 (antibody, human IgG4 S228P, kappa, V domains shown)
VH: EFQLQQSGPELVKPGASVKISCKASGYSFTDYNMNWVKQSNGKSLDWIGIINPKYGTTAYNQKLRDKATLTVDQSSSTAYMQLNSLTSEDSAVYYCASLNWDEGFAYWGQGTLVTVSP
VL: DVLMTQTPLSLPVSLGDQASISCRSSQSIVHSNGNTYLEWYLQKPGQPPKLLIYKVSNRFSGVPERFSGSGSGTDFTLKINRVEAEDLGVYYCFQGSLVPPTFGGGTKLEIKR
B13: LK-RB2-2 (antibody, human IgG4 S228P, kappa, V domains shown)
VH: DVKLEESGEGLVKPGGSLKLSCAASGFTFSSYAMSWVRQTPEKRLEWVAYISSGGDYFHYADTVKGRFTISRDNARNTLYLQMSSLKSEDTAMYYCTREGAHYDSSYLAWFAHWGQGTLVTVSA
VL: DIQMTQSPASLSVSVGETVTITCRASENIYSNLAWYQQRQGKSPQLLVYAATNLADGVPSRFSGSGSGTQYSLKINSLQSEDFGSYYCQQFWDNPLTFGAGTKLELKR

molecular target: T1, human LILRB1 expressed on CHOK1 cells (CHOK1-hLILRB1) (human, UniProt Q8NHL6 24-650); assay: FACS binding to CHOK1-hLILRB1 cells
T1 construct: whole, on cells; also called CHOK1-LILRB1
T1 sequence (Q8NHL6 24-650): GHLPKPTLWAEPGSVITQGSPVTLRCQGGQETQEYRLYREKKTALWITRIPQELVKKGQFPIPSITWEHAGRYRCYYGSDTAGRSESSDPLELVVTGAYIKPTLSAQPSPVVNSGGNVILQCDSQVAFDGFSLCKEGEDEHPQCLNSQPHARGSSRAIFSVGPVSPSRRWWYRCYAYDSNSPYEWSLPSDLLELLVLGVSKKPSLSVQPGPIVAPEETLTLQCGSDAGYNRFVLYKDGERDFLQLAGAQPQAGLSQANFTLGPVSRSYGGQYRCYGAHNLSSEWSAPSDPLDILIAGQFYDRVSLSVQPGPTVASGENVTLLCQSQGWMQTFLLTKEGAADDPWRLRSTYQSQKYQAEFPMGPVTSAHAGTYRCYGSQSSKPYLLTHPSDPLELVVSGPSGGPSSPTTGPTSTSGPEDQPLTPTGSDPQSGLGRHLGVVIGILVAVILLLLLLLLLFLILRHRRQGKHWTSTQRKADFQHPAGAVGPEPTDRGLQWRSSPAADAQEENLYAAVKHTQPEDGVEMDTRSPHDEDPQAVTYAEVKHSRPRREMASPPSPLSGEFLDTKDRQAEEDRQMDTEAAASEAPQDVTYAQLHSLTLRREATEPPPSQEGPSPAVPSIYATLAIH

| binding result | EC50 [nM] | Binder |
| --- | --- | --- |
| no binding |  | B1 |
|  | 65.5 | B2 |
|  | 45.3 | B3 |
| no binding |  | B4 |
| no binding |  | B5 |
| no binding |  | B6 |
| no binding |  | B7 |
| no binding |  | B8 |
| no binding |  | B9 |
|  | 7.06 | B10 |
| no binding |  | B11 |
| no binding |  | B12 |
| no binding |  | B13 |

molecular target: T2, human LILRB2 expressed on CHOK1 cells (CHOK1-hLILRB2) (human, UniProt Q8N423 22-597); assay: FACS binding to CHOK1-hLILRB2 cells
T2 construct: whole, on cells; also called CHOK1-LILRB2
T2 sequence (Q8N423 22-597): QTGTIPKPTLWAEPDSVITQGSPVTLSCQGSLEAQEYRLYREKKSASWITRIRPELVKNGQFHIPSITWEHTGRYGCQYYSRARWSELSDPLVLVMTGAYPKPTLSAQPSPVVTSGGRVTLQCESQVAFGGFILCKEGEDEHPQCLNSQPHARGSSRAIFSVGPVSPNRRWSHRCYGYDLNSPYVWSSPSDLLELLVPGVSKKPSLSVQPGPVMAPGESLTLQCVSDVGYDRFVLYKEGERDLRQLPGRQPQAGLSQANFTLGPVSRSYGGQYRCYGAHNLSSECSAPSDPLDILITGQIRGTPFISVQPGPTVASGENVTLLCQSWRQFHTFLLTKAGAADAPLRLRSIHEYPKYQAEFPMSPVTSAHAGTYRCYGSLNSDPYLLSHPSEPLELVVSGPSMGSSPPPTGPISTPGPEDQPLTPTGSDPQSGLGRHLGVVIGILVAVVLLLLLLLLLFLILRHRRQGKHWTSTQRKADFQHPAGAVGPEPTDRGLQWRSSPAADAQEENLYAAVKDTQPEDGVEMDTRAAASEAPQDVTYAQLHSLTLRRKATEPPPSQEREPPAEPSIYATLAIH

| EC50 [nM] | binding result | Binder |
| --- | --- | --- |
| 0.24 |  | B1 |
| 0.26 |  | B2 |
| 0.22 |  | B3 |
| 0.91 |  | B4 |
|  | no binding | B5 |
| 1.61 |  | B6 |
| 0.4 |  | B7 |
| 0.18 |  | B8 |
| 2.28 |  | B9 |
| 2.34 |  | B10 |
| 0.29 |  | B11 |
|  | no binding | B12 |
| 0.25 |  | B13 |

molecular target: T2, human LILRB2 expressed on CHOK1 cells …; assay: cell based RBA, flow cytometry: blocking of HLA-G binding to CHOK1-hLILRB2 cells

| EC50 [nM] | Top Inhibition [%] | Binder |
| --- | --- | --- |
| 0.323 | 73.7 | B1 |
| 0.198 | 71.2 | B2 |
| 0.112 | 71.1 | B3 |
| 1.87 | 90 | B4 |
| 1.71 | 65.2 | B6 |
| 0.946 | 73.2 | B7 |
| 0.203 | 88.4 | B8 |
| 1.61 | 62.4 | B9 |
| 50.3 | 18.1 | B10 |
| 0.231 | 73.8 | B11 |
| 0.134 | 74.5 | B13 |
